Source: patent US20220162320A1 (published 2022)

Experiments:
[1] = molecular target: T1, HLA-PEPTIDE target G2: HLA-A*01:01_…, recombinant soluble complex (human, enzymatically biotinylated (BirA)); experiment: BLI
T1 construct: also called G2-pHLA

[2] = molecular target: T2, HLA-A*01:01_… (G2) presented on cells (human); experiment: flow cytometry on pulsed K562 cells, against off target peptide [..] and unpulsed cells
T2 construct: whole, on cells

[3] = molecular target: T3, HLA-B*35:01 (alpha chain with beta-2 microglobulin), recombinant (human); experiment: conditional ligand exchange, stability ELISA
T3 construct: also called HLA complex of the conditional ligand exchange / stability ELISA

binding result [1] | binding result [2] | binding result [3] | Binder
binds | binds | – | 3-G2(1H11)-hOKT3 (bispecific antibody, human IgG1, kappa, N297Q, also called 3-hOKT3-G2(1H11)) not shown heavy: QVQLVQSGAEVKKPGASVKVSCKASGYTFTRYTMHWVRQAPGQGLEWMGYINPSRGYTNYNQKFKDRVTLTTDKSSSTAYMELSSLRSEDTAVYYCARYYDDHYSLDYWGQGTLVTVSSASTKGPSVFPLAPSSKSTSGGTAALGCLVKDYFPEPVTVSWNSGALTSGVHTFPAVLQSSGLYSLSSVVTVPSSSLGTQTYICNVNHKPSNTKVDKRVEPKSCDKTHTCPPCPAPELLGGPSVFLFPPKPKDTLMISRTPEVTCVVVDVSHEDPEVKFNWYVDGVEVHNAKTKPREEQYQSTYRVVSVLTVLHQDWLNGKEYKCKVSNKALPAPIEKTISKAKGQPREPQVCTLPPSREEMTKNQVSLSCAVKGFYPSDIAVEWESNGQPENNYKTTPPVLDSDGSFFLVSKLTVDKSRWQQGNVFSCSVMHEALHNRFTQKSLSLSPGK light: DIQMTQSPSSLSASVGDRVTITCSASSSVSYMNWYQQKPGKAPKRLIYDTSKLASGVPSRFSGSGSGTDFTLTISSLQPEDFATYYCQQWSSNPFTFGQGTKLEIKRTVAAPSVFIFPPSDEQLKSGTASVVCLLNNFYPREAKVQWKVDNALQSGNSQESVTEQDSKDSTYSLSSTLTLSKADYEKHKVYACEVTHQGLSSPVTKSFNRGEC
– | – | binds | EVDPIGHVY (also called G5 peptide) [peptide EVDPIGHVY]
